What was measured:
[1] = system: azocasein; assay: Thermal stability of Me-trypsin and trypsin in a disinfecting solution (Example 5C), azocasein method; assay type: physicochemical; details: Example 5C composition, 50 μg/ml
Procedure: Azocasein Method The following solutions are used in this assay: 1) Buffer solution: 0.05 M sodium phosphate buffer containing 0.9% sodium chloride, pH 7.6. 2) Substrate solution: 2 mg/ml azocasein in the buffer solution mentioned above. The assay is initiated by mixing 1 ml of an appropriately diluted (such that the enzyme activity is in the range of standard curve) enzyme composition in phosphate buffer with 2 ml of azocasein substrate solution (2 mg/ml). After incubation at 37° C. for 20 minutes, the mixture is removed from the incubator and 1 ml of trichloroacetic acid to (14% w/v) is added to stop the enzyme reaction. The mixture is vortexed well and allowed to stand at room temperature for 20 minutes. After centrifuging at 2500 rpm (with a Beckman GS-6R Centrifuge) for 15 minutes, the supernatant is filtered with a serum sampler. 2 ml of the clear yellow filtrate is then adjusted to a neutral pH with 2 ml of 0.5 N sodium hydroxide and the absorbance of 440 nm wavelength light is measured with a spectrophotometer. The amount of azocasein hydrolyzed is calculated based on a standard curve of known concentrations of azocasein solution developed under identical conditions. An enzyme activity unit (“AZ U”) is defined as that amount of enzyme which hydrolyzes 1 μg of azocasein substrate/minute at 37° C. The following is an example of the stability of Me-trypsin in a disinfecting composition of the present invention as compared to an analogous composition containing trypsin. The enzymes were solubilized in the Example 5C composition. The two compositions were incubated at 35° C. or 40° C. At the appointed time, aliquots were tested for enzyme activity by the azocasein method. Activity levels were compared with initial levels and expressed as percent remaining activity.

[2] = system: lysozyme deposits; assay: Cleaning efficacy on lysozyme-deposited contact lenses, fluorescence method; details: for Lysozyme, Total: hydrolysate plus ACN/TFA extract; for Lysozyme, ACN/TFA Extract: lens extract after overnight cleaning at room temperature; for % Cleaning Efficacy: overnight soak at room temperature, no rubbing; for Lysozyme, Hydrolysate: soaking solution after overnight cleaning at room temperature
Procedure: The following example illustrates the cleaning efficacy of a multi-purpose composition (Example 6) of the present invention. The cleaning efficacy was determined using the following protocol. 1. Physiological/Thermal Combination Model Each lens was first soaked in a 5 ml lysozyme solution (native or C14-labeled, 1.0 mg/ml in 0.05M phosphate buffer containing 0.9% sodium chloride, pH 7.4) at 37° C. for 24 hours, then removed to a saline solution (2 ml) and heated at 90° C. for 15 minutes. 2. Cleaning and Assessment of Lysozyme Deposits Each deposited lens was placed in a 5 ml of a test solution and agitated in a rotary shaker at room temperature overnight (usually >12 hours). The compositions tested were: 1) the Example 6 composition (Me-trypsin), 2) 1 drop of Example 3B (except Me-trypsin was replaced by trypsin) in 5 mL of the Example 2B composition and 3) 1 drop of Supraclens® Daily Protein Remover (pancreatin) in 5 mL of the Example 2B composition. After rinsing the lens by dipping three times in three consecutive 40 ml saline solution, the lens was subjected to extraction with 5 ml ACN/TFA solution (acetonitrile/trifluoroacetic acid/water: 500/1/500 v/v) for at least 2 hours. No mechanical rubbing was applied to the cleaning regimen. Both the extract and the soaking solution were then assessed for lysozyme by the protein intrinsic fluorescence method using a fluorescence spectrophotometer (excitation wavelength is 280 nm, emission wavelength is 354 nm), or by a scintillation counter for the C14-lysozyme. The quantification of lysozyme was based on a lysozyme standard curve established using the same vehicle and instrumental setting used for the lens extract and lens soaking solution. The results are show in Tables 9-10.

[3] = system: azocasein; assay: Stability of Me-trypsin in the Example 2A composition, azocasein method; assay type: physicochemical
Procedure: Azocasein Method The following solutions are used in this assay: 1) Buffer solution: 0.05 M sodium phosphate buffer containing 0.9% sodium chloride, pH 7.6. 2) Substrate solution: 2 mg/ml azocasein in the buffer solution mentioned above. The assay is initiated by mixing 1 ml of an appropriately diluted (such that the enzyme activity is in the range of standard curve) enzyme composition in phosphate buffer with 2 ml of azocasein substrate solution (2 mg/ml). After incubation at 37° C. for 20 minutes, the mixture is removed from the incubator and 1 ml of trichloroacetic acid to (14% w/v) is added to stop the enzyme reaction. The mixture is vortexed well and allowed to stand at room temperature for 20 minutes. After centrifuging at 2500 rpm (with a Beckman GS-6R Centrifuge) for 15 minutes, the supernatant is filtered with a serum sampler. 2 ml of the clear yellow filtrate is then adjusted to a neutral pH with 2 ml of 0.5 N sodium hydroxide and the absorbance of 440 nm wavelength light is measured with a spectrophotometer. The amount of azocasein hydrolyzed is calculated based on a standard curve of known concentrations of azocasein solution developed under identical conditions. An enzyme activity unit (“AZ U”) is defined as that amount of enzyme which hydrolyzes 1 μg of azocasein substrate/minute at 37° C. […] At the appointed time, aliquots were tested for enzyme activity by the azocasein method. Activity levels were compared with initial levels and expressed as percent remaining activity.

Question: With “Trypsin [Native Trypsin, reference compound]” as the substance, how does the “% Activity Remaining” value ([1]; 35° C., 24 hrs) read?
Answer: Its value is 69.9%.

Question: What about the “% Activity Remaining” value ([1]; 35° C., 48 hrs) of the same substance?
Answer: The value was 55.9%.

Question: And the “% Activity Remaining” value ([1]; 35° C., 72 hrs)?
Answer: Its value is 48.5%.

Question: What about the “% Activity Remaining” value ([1]; 35° C., 168 hrs) of the same substance?
Answer: Its value is 37.6%.

Question: And the “% Activity Remaining” value ([1]; 40° C., 24 hrs)?
Answer: The value was 42.4%.

Question: What about the “% Activity Remaining” value ([1]; 40° C., 114 hrs) of the same substance?
Answer: The value was 19.4%.

Question: What about the “% Activity Remaining” value ([1]; 40° C., 168 hrs) of the same substance?
Answer: Its value is 17.4%.

Question: What about the “Lysozyme, Total” value [2] of the same substance?
Answer: The value was 317.40 μg/Lens.

Question: What about the “Lysozyme, ACN/TFA Extract” value [2] of the same substance?
Answer: The value was 83.92 μg/Lens.

Question: And the “% Cleaning Efficacy” value [2]?
Answer: The value was 73.6%.

Question: And the “Lysozyme, Hydrolysate” value [2]?
Answer: Its value is 233.45 μg/Lens.

Question: With methyl trypsin [Me-Trypsin] as the substance, how does the “Percent Remaining Activity” value ([3]; 40° C., 1 week) read?
Answer: Its value is 100%.

Question: And the “Percent Remaining Activity” value ([3]; 40° C., 2 weeks)?
Answer: The value was 100%.

Question: And the “Percent Remaining Activity” value ([3]; 40° C., 4 weeks)?
Answer: Its value is 93.7%.

Question: And the “Percent Remaining Activity” value ([3]; 40° C., 6 weeks)?
Answer: The value was 100%.

Question: And the “Percent Remaining Activity” value ([3]; 40° C., 8 weeks)?
Answer: The value was 100%.

Question: And the “Percent Remaining Activity” value ([3]; 40° C., 12 weeks)?
Answer: Its value is 100%.

Question: And the “Percent Remaining Activity” value ([3]; 45° C., 1 week)?
Answer: Its value is 100%.

Question: And the “Percent Remaining Activity” value ([3]; 45° C., 2 weeks)?
Answer: Its value is 100%.

Question: And the “Percent Remaining Activity” value ([3]; 45° C., 4 weeks)?
Answer: Its value is 92.7%.

Question: And the “Percent Remaining Activity” value ([3]; 45° C., 6 weeks)?
Answer: The value was 97.8%.

Question: What about the “Percent Remaining Activity” value ([3]; 45° C., 8 weeks) of the same substance?
Answer: The value was 100%.

Question: And the “Percent Remaining Activity” value ([3]; 45° C., 12 weeks)?
Answer: The value was 97.6%.

Question: What about the “Percent Remaining Activity” value ([3]; 50° C., 1 week) of the same substance?
Answer: Its value is 91.8%.

Question: What about the “Percent Remaining Activity” value ([3]; 50° C., 2 weeks) of the same substance?
Answer: The value was 91.8%.

Question: And the “Percent Remaining Activity” value ([3]; 50° C., 4 weeks)?
Answer: The value was 82.4%.

Question: And the “Percent Remaining Activity” value ([3]; 50° C., 6 weeks)?
Answer: Its value is 81.3%.

Question: And the “Percent Remaining Activity” value ([3]; 50° C., 8 weeks)?
Answer: Its value is 75.2%.

Question: What about the “Percent Remaining Activity” value ([3]; 50° C., 12 weeks) of the same substance?
Answer: The value was 71.5%.

Question: And the “Percent Remaining Activity” value ([3]; 55° C., 1 week)?
Answer: Its value is 82.1%.

Question: And the “Percent Remaining Activity” value ([3]; 55° C., 2 weeks)?
Answer: The value was 75.3%.

Question: What about the “Percent Remaining Activity” value ([3]; 55° C., 4 weeks) of the same substance?
Answer: Its value is 46.5%.

Question: And the “Percent Remaining Activity” value ([3]; RT, 1 week)?
Answer: The value was 100%.

Question: And the “Percent Remaining Activity” value ([3]; RT, 2 weeks)?
Answer: Its value is 100%.

Question: What about the “Percent Remaining Activity” value ([3]; RT, 4 weeks) of the same substance?
Answer: The value was 94.1%.

Question: And the “Percent Remaining Activity” value ([3]; RT, 6 weeks)?
Answer: The value was 100%.

Question: And the “Percent Remaining Activity” value ([3]; RT, 8 weeks)?
Answer: Its value is 100%.

Question: What about the “Percent Remaining Activity” value ([3]; RT, 12 weeks) of the same substance?
Answer: The value was 100%.

Question: What about the “% Activity Remaining” value ([1]; 35° C., 24 hrs) of the same substance?
Answer: Its value is 97.6%.

Question: What about the “% Activity Remaining” value ([1]; 35° C., 48 hrs) of the same substance?
Answer: Its value is 96.4%.

Question: And the “% Activity Remaining” value ([1]; 35° C., 72 hrs)?
Answer: Its value is 91.6%.

Question: And the “% Activity Remaining” value ([1]; 35° C., 168 hrs)?
Answer: The value was 87.3%.

Question: What about the “% Activity Remaining” value ([1]; 40° C., 24 hrs) of the same substance?
Answer: The value was 88.9%.

Question: What about the “% Activity Remaining” value ([1]; 40° C., 114 hrs) of the same substance?
Answer: The value was 75.2%.

Question: What about the “% Activity Remaining” value ([1]; 40° C., 168 hrs) of the same substance?
Answer: Its value is 67.0%.

Question: What about the “Lysozyme, Total” value [2] of the same substance?
Answer: The value was 274.35 μg/Lens.

Question: What about the “Lysozyme, ACN/TFA Extract” value [2] of the same substance?
Answer: Its value is 72.90 μg/Lens.

Question: And the “% Cleaning Efficacy” value [2]?
Answer: The value was 73.4%.

Question: And the “Lysozyme, Hydrolysate” value [2]?
Answer: Its value is 201.45 μg/Lens.

Reference: patent US6358897B1, “Alkyl trypsin compositions and methods of use in contact lens cleaning and disinfecting systems” (Alcon Laboratories, Inc., priority 1996, dated 2002)
